Our source for the ThT fibrillation of 50 µM α-Syn monomer with 0.5 µM DnaK, with 2 mM ATP: relative decrease in vmax (1.32 h^-1 to 0.49 h^-1) and end signal (176,900–53,000) and ThT fibrillation of 50 µM α-Syn monomer with 0.5 µM DnaK, without ATP: relative decrease in vmax (0.99 h^-1 to 0.55 h^-1) and end signal (43,000-24,600) values is publication PMC11699742.

For the assay, the target named is α-Synuclein (UniProt P37840).

DnaK from E. coli, sequence (P0A6Y8 whole entry): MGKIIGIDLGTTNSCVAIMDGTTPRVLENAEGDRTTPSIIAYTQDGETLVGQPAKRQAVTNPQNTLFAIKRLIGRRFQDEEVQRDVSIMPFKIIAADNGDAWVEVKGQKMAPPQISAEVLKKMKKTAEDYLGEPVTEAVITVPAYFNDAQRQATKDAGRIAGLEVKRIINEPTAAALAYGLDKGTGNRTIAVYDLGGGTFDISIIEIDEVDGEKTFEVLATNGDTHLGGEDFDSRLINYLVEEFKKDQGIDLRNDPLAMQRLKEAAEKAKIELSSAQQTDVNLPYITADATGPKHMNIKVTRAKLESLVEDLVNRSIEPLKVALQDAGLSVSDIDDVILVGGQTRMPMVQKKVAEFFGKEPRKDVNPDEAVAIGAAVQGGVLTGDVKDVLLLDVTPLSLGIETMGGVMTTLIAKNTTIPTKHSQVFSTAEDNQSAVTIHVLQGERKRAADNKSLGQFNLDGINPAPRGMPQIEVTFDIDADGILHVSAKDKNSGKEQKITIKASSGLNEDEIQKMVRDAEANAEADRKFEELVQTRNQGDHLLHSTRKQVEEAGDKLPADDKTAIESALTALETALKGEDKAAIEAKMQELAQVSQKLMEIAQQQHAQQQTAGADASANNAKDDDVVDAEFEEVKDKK

In turn, “DnaK from E. coli (from UniProt P0A6Y8 1-638) (natural protein)” came in with a ThT fibrillation of 50 µM α-Syn monomer with 0.5 µM DnaK, with 2 mM ATP: relative decrease in vmax (1.32 h^-1 to 0.49 h^-1) and end signal (176,900–53,000) of 64%; a ThT fibrillation of 50 µM α-Syn monomer with 0.5 µM DnaK, without ATP: relative decrease in vmax (0.99 h^-1 to 0.55 h^-1) and end signal (43,000-24,600) of 45%.
